Assay [1] addresses human VEGF165 (human) (UniProt P15692). Put plainly: direct binding ELISA, VEGF165 coated, anti-human IgG Fc-HRP detection.
Assay [2] addresses integrin αvβ3 expressed on CHO cells (CHO-αvβ3). Put plainly: cell-based or functional assay.
For assay [3], the target named is soluble integrin αvβ3.
Chain of soluble integrin αvβ3 (P06756 31-992, chain 1 of 2): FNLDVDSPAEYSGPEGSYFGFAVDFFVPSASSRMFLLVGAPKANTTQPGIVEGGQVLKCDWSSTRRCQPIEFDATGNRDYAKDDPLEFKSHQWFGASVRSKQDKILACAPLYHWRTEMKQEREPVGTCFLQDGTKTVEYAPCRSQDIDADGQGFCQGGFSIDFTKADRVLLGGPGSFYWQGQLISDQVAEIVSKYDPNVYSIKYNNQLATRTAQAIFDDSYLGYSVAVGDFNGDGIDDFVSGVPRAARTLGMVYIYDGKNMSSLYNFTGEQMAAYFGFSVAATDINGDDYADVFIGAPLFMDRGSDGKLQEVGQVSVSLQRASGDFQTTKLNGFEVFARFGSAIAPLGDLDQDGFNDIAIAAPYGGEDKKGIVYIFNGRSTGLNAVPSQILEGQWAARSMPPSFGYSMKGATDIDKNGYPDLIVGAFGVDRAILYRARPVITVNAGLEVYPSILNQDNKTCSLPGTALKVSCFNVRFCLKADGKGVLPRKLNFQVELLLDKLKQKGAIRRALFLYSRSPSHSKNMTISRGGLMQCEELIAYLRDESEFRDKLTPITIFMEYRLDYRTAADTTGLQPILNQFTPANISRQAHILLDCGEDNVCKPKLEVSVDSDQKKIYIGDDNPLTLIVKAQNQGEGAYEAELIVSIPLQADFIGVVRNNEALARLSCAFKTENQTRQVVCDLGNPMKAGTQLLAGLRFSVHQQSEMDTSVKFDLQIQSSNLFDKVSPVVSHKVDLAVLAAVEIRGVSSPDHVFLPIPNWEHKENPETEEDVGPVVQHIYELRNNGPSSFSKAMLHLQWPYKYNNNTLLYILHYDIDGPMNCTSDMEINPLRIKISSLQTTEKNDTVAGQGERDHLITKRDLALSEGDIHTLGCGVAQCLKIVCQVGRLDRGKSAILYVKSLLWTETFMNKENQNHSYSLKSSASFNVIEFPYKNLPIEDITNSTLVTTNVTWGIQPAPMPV
Chain of soluble integrin αvβ3 (P05106 27-718, chain 2 of 2, further chain): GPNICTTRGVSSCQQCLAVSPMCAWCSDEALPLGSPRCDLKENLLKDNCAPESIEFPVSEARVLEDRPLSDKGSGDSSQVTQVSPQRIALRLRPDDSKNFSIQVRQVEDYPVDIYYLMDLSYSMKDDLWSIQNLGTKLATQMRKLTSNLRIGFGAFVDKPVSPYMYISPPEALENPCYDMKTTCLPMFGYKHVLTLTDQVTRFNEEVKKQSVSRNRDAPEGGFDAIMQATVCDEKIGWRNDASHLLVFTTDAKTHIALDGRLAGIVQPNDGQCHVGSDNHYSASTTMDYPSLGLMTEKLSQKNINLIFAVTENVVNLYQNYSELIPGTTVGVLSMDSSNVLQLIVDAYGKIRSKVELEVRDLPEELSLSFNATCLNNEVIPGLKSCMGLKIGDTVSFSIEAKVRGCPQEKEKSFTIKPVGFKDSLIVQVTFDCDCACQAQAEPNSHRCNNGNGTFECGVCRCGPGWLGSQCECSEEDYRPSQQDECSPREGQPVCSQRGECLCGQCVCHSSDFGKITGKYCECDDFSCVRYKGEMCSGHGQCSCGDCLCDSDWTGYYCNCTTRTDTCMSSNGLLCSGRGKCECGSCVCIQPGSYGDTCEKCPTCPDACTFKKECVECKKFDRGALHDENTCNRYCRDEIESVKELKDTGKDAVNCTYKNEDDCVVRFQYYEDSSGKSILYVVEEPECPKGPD

In assay [1], “Positive Control 2 (aflibercept) (Fc fusion)” displayed an EC50 of 0.088 to 0.195 nM.

In assay [2], “Positive Control 3 (wild type Rho, SEQ ID NO: 1) (from UniProt P30403 408-475) (ligand)” registered a αvβ3, IC50 (nM), inhibition of CHO-αvβ3 cell adhesion to fibrinogen of 24.7 nM. In assay [3], this substance had an IC50 of 2.6 to 3.2 nM.
